Earlier results in US8420067B2, “Targeted polylysine dendrimer therapeutic agent” (Starpharma Pty Ltd, priority 2006, dated 2013).
Where two headings read alike, the source gives them in different places.

Substance | stability of the conjugate in acidic conditions (acidic conditions (pH 4-6)) | stability of the conjugate in acidic conditions (pH 4) | stability of the conjugate in acidic conditions (pH 5)
α-methoxy-ω-{N-2-(3-hydroxypropyl-cholesterylcarbamate)-2-methyl-[1,3]dioxan-5-yl-amido}-polyethyleneglycol110 | not stable |  | 
α-methoxy-ω-{N-(2-methyl-s-octadecyloxy-[1,3]dioxan-5-yl)-amido}-polyethyleneglycol110 | not stable |  | 
α-methoxy-ω-{N-(2-cholesteryloxy-[1,3]dioxolan-4-yl)methylamido}-polyethyleneglycol110 |  | moderately less stable | very stable
α-methoxy-ω-{N-(2-octadecyloxy-[1,3]dioxolan-4-yl)methylamido}-polyethyleneglycol110 |  | good stability | good stability
